Data set [1] concerns the molecule itself. Description: native gel or EMSA; purified urinary ELVs with 0.2-0.8% SDS, non reducing, incubated on ice 20 min without heating; native gel; western blot.
Data set [2] concerns the molecule itself. The data set can be described thus: SDS-PAGE and western blot; human RCTE cells, PC2 bands on SDS-PAGE western blot read as monomer, dimer and tetramer (Supplemental Fig. 2). On the technique in general: A western blot detects proteins with antibodies after separation by electrophoresis.

Values joined by “and” are separate entries in the source; they are usually repeats but may differ in a detail not shown here. Equal entries are not always repeated.

B1: polycystin-2 (PC2) of urinary ELVs (natural protein, human (endogenous in urinary ELVs), UniProt Q13563 1-968, looked up)
chain: MVNSSRVQPQQPGDAKRPPAPRAPDPGRLMAGCAAVGASLAAPGGLCEQRGLEIEMQRIRQAAARDPPAGAAASPSPPLSSCSRQAWSRDNPGFEAEEEEEEVEGEEGGMVVEMDVEWRPGSRRSAASSAVSSVGARSRGLGGYHGAGHPSGRRRRREDQGPPCPSPVGGGDPLHRHLPLEGQPPRVAWAERLVRGLRGLWGTRLMEESSTNREKYLKSVLRELVTYLLFLIVLCILTYGMMSSNVYYYTRMMSQLFLDTPVSKTEKTNFKTLSSMEDFWKFTEGSLLDGLYWKMQPSNQTEADNRSFIFYENLLLGVPRIRQLRVRNGSCSIPQDLRDEIKECYDVYSVSSEDRAPFGPRNGTAWIYTSEKDLNGSSHWGIIATYSGAGYYLDLSRTREETAAQVASLKKNVWLDRGTRATFIDFSVYNANINLFCVVRLLVEFPATGGVIPSWQFQPLKLIRYVTTFDFFLAACEIIFCFFIFYYVVEEILEIRIHKLHYFRSFWNCLDVVIVVLSVVAIGINIYRTSNVEVLLQFLEDQNTFPNFEHLAYWQIQFNNIAAVTVFFVWIKLFKFINFNRTMSQLSTTMSRCAKDLFGFAIMFFIIFLAYAQLAYLVFGTQVDDFSTFQECIFTQFRIILGDINFAEIEEANRVLGPIYFTTFVFFMFFILLNMFLAIINDTYSEVKSDLAQQKAEMELSDLIRKGYHKALVKLKLKKNTVDDISESLRQGGGKLNFDELRQDLKGKGHTDAEIEAIFTKYDQDGDQELTEHEHQQMRDDLEKEREDLDLDHSSLPRPMSSRSFPRSLDDSEEDDDEDSGHSSRRRGSISSGVSYEEFQVLVRRVDRMEHSIGSIVSKIDAVIVKLEIMERAKLKRREVLGRLLDGVAEDERLGRDSEIHREQMERLVREELERWESDDAASQISHGLGTPVGLNGQPRPRSSRPSSSQSTEGMEGAGGNGSSNVHV
modifications: mature post-Golgi N-linked glycosylation (PNGase F sensitive, Endo H resistant)
notes: polycystin-2, human, product of PKD2, printed length 968 aa; about 10-13% is cleaved in the C-terminal tail N-terminal to the coiled-coil domain (833..872 aa); also called ELV PC2; source: endogenous, human urinary exosome-like vesicles (ELVs), detergent-solubilised
As to B1, the stoichiometry N (as a rule, a count of units in the complex or per binding partner) in data set [1] amounted to 2.

B2: polycystin-2 (PC2) of human renal cortical tubular epithelial (RCTE) cells (natural protein, human (endogenous in RCTE cells), UniProt Q13563 1-968, looked up)
chain: MVNSSRVQPQQPGDAKRPPAPRAPDPGRLMAGCAAVGASLAAPGGLCEQRGLEIEMQRIRQAAARDPPAGAAASPSPPLSSCSRQAWSRDNPGFEAEEEEEEVEGEEGGMVVEMDVEWRPGSRRSAASSAVSSVGARSRGLGGYHGAGHPSGRRRRREDQGPPCPSPVGGGDPLHRHLPLEGQPPRVAWAERLVRGLRGLWGTRLMEESSTNREKYLKSVLRELVTYLLFLIVLCILTYGMMSSNVYYYTRMMSQLFLDTPVSKTEKTNFKTLSSMEDFWKFTEGSLLDGLYWKMQPSNQTEADNRSFIFYENLLLGVPRIRQLRVRNGSCSIPQDLRDEIKECYDVYSVSSEDRAPFGPRNGTAWIYTSEKDLNGSSHWGIIATYSGAGYYLDLSRTREETAAQVASLKKNVWLDRGTRATFIDFSVYNANINLFCVVRLLVEFPATGGVIPSWQFQPLKLIRYVTTFDFFLAACEIIFCFFIFYYVVEEILEIRIHKLHYFRSFWNCLDVVIVVLSVVAIGINIYRTSNVEVLLQFLEDQNTFPNFEHLAYWQIQFNNIAAVTVFFVWIKLFKFINFNRTMSQLSTTMSRCAKDLFGFAIMFFIIFLAYAQLAYLVFGTQVDDFSTFQECIFTQFRIILGDINFAEIEEANRVLGPIYFTTFVFFMFFILLNMFLAIINDTYSEVKSDLAQQKAEMELSDLIRKGYHKALVKLKLKKNTVDDISESLRQGGGKLNFDELRQDLKGKGHTDAEIEAIFTKYDQDGDQELTEHEHQQMRDDLEKEREDLDLDHSSLPRPMSSRSFPRSLDDSEEDDDEDSGHSSRRRGSISSGVSYEEFQVLVRRVDRMEHSIGSIVSKIDAVIVKLEIMERAKLKRREVLGRLLDGVAEDERLGRDSEIHREQMERLVREELERWESDDAASQISHGLGTPVGLNGQPRPRSSRPSSSQSTEGMEGAGGNGSSNVHV
notes: polycystin-2, human, product of PKD2, printed length 968 aa; also called PC2 from cells; source: endogenous, human RCTE cells
For B2, the “stoichiometry N” value in data set [2] was 2 and 4.

Values taken from paper PMC6992733, “Analysis of the polycystin complex (PCC) in human urinary exosome–like vesicles (ELVs)” (Scientific Reports, 2020).
